The record followed here is article PMC3172300, “Modulation of Catalytic Activity in Multi-Domain Protein Tyrosine Phosphatases” (PLoS ONE, 2011).

Read-outs that look alike come from different tables or passages of the source.

Series [1] has as its target T1, DLAR D1D2 (Drosophila melanogaster, UniProt P16621).
T1 construct: DLAR 1448-2029; His tag (pET-15b or pET-22b); made in house; host or cells: E. coli BL21(DE3)
T1 sequence (P16621 1448-2029): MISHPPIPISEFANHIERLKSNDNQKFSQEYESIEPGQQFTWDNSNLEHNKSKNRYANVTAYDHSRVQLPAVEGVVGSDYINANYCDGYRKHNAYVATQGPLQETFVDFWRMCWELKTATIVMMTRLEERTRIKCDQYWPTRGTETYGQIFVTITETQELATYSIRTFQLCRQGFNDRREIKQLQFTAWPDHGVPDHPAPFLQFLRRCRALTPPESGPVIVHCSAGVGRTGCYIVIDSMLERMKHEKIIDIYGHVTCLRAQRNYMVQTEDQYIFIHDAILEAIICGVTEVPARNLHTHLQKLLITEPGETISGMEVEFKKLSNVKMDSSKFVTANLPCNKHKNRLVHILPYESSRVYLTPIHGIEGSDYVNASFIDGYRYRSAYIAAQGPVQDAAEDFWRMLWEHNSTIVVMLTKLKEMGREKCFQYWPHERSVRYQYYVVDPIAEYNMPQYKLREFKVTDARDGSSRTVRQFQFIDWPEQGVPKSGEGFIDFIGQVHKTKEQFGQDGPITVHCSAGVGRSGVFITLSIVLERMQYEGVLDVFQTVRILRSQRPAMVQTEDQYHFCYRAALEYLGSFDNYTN
In words: Surface Plasmon Resonance peptide binding, DLAR D1D2. As to conditions: two-site model; for kon: read-out: ka. Here is the method:
(§1) The binding of phosphotyrosine peptides to the PTP domains was studied by Surface Plasmon Resonance on a Biacore-2000 instrument (BIAcore, AB). All experiments were conducted at 25°C. DLAR PTP domains were immobilized onto carboxylated dextran CM5 chips (BIAcore AB) using the standard amine coupling procedure as recommended by the manufacturer. Binding and kinetic assays were performed in 10 mM HEPES, pH 8.0, 150 mM NaCl, 10 mM DTT and 3 mM EDTA at a flow rate of 5 µL/min. The peptides were used at concentrations ranging from 50–700 µM. Dissociation was initiated by replacing the analyte with buffer. The association and dissociation curves were monitored for 600 sec. Sensograms were analyzed with BIA-evaluation software version 2 (BIAcore AB). Sensograms for DLAR D1D2, DLAR D1HSSD2 and DLAR D1D2HSS were fitted to two-site binding equations. DLAR D1 and DLAR D2 sensograms were fitted using a single-site binding model.

In series [2] the target is T2, DLAR D1 (Drosophila melanogaster, UniProt P16621).
T2 construct: DLAR 1448-1746; His tag (pET-15b or pET-22b); made in house; host or cells: E. coli BL21(DE3)
T2 sequence (P16621 1448-1746): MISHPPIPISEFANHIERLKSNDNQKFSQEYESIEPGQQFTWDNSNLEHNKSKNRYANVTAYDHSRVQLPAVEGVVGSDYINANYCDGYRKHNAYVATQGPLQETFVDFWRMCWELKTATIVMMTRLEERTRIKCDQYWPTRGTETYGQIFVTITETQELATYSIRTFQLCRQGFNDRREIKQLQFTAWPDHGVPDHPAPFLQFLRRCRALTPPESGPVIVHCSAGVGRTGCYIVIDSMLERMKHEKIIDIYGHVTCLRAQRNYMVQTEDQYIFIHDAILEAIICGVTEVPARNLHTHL
In words: Dephosphorylation of phosphotyrosine peptides (malachite green), DLAR D1. The class given is biochemical. As to conditions: 0.01 µM protein, 25 mM citrate pH 6.0, 15 min at 25°C, malachite green. An excerpt:
(§2) Substrates of PTPs characterized thus far include the activation loop segments of various kinases and regulatory loops of other signaling proteins. Suitably designed peptide substrates mimic the physiologically relevant substrates of PTPs. In the present study, peptide substrates were designed for DLAR for which more information was available on its interacting partners. […] The five peptides were chosen based on their distinct charge distributions around the central phosphotyrosine residue. The phosphorylated as well as non-phosphorylated peptides were obtained from GL Bioscience, China. The peptides were >95% pure and were used after a single round of desalting using a Sephadex G25 column (GE Healthcare). The concentration of the peptide samples for biochemical studies was ascertained by UV absorption at 268 nm for the pY residue.
(§3) Phosphatase activity of the recombinant PTP domains was determined by using para-Nitrophenylphosphate (pNPP), a small molecule generic substrate, as well as phosphotyrosine containing peptides. The pNPP assay was performed as reported previously, with a modification in the buffer composition (25 mM Citrate, Glycine and HEPES (CGH), pH 6.5, 100 mM NaCl and 2 mM DTT). Phosphatase activity with the phosphotyrosine peptides was ascertained by the malachite green reaction as described for PTPs previously. Briefly, the reaction mixture comprised of 0.01 µM protein incubated with increasing concentrations of different peptides in 25 mM citrate buffer pH 6.0, 100 mM NaCl and 2 mM DTT for 15 min at 25°C. The reaction was stopped by the addition of the Biomol Green reagent (Enzo Life Sciences) and the colour developed after 20 min was quantified at 650 nm. For all the assays, kinetic constants for the steady state catalysis were obtained by fitting the reaction curves to the Michaelis-Menten equation using the nonlinear regression module of Sigma plot software (Systat Software, Inc.).

Series [3] has as its target T3, DLAR D1 D2HSS (Drosophila melanogaster, UniProt P16621, C1961S).
T3 construct: DLAR 1448-2029; His tag (pET-15b or pET-22b); made in house; host or cells: E. coli BL21(DE3)
In words: Surface Plasmon Resonance peptide binding, DLAR D1 D2HSS. As to conditions: two-site model, read-out: ka. Here is the method: as §1

Series [4] has as its target T1, DLAR D1D2. In words: Dephosphorylation of phosphotyrosine peptides (malachite green), DLAR D1D2. As to conditions: 0.01 µM protein, 25 mM citrate pH 6.0, 15 min at 25°C, malachite green. The class given is biochemical.
From the text: as §2, §3

In series [5] the target is T3, DLAR D1 D2HSS. It counts as biochemical. As to conditions: 0.01 µM protein, 25 mM citrate pH 6.0, 15 min at 25°C, malachite green.
From the text: as §2, §3

Series [6] has as its target T4, DLAR D1HSS D2 (Drosophila melanogaster, UniProt P16621, C1670S).
T4 construct: DLAR 1448-2029; His tag (pET-15b or pET-22b); made in house; host or cells: E. coli BL21(DE3)
T4 sequence (P16621 1448-2029 C1670S): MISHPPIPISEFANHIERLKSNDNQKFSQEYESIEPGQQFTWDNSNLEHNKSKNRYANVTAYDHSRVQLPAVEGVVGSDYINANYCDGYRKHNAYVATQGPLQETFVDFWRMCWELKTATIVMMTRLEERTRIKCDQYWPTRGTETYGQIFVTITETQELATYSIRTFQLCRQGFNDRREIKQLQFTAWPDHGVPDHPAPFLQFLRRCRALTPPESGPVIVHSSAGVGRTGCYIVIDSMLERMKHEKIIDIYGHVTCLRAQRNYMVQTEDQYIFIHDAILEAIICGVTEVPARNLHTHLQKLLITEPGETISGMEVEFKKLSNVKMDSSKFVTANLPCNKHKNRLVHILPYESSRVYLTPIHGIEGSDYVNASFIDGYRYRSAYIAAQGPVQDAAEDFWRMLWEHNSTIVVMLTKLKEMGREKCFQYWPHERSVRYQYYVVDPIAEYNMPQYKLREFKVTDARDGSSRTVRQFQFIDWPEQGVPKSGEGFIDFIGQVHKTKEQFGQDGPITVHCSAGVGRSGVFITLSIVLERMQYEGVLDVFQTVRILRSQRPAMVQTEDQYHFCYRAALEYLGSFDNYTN
In words: Surface Plasmon Resonance peptide binding, DLAR D1HSS D2. As to conditions: two-site model, read-out: ka. The method, then: as §1

Substrate in series [7]: CC(C)C[C@H](NC(=O)[C@H](C)NC(=O)CNC(=O)[C@H](Cc1ccc(OP(=O)(O)O)cc1)NC(=O)[C@H](CC(=O)O)NC(=O)[C@@H]1CCCN1C(=O)[C@H](CCC(=O)O)NC(=O)[C@H](C)NC(=O)[C@@H](N)[C@@H](C)O)C(=O)N[C@@H](Cc1ccc(O)cc1)C(=O)N[C@@H](CCC(=O)O)C(=O)O
In words: purified protein, by the assay type. As to conditions: other: 0.01 µM protein, 25 mM citrate pH 6.0, 15 min at 25°C, malachite green.

Substrate in series [8]: CC[C@H](C)[C@H](NC(=O)[C@H](CC(=O)O)NC(=O)[C@H](CCCNC(=N)N)NC(=O)[C@@H](N)[C@@H](C)O)C(=O)N[C@@H](Cc1ccc(OP(=O)(O)O)cc1)C(=O)N[C@@H](CCC(=O)O)C(=O)N[C@H](C(=O)N[C@@H](CC(=O)O)C(=O)N[C@@H](Cc1ccc(O)cc1)C(=O)N[C@@H](Cc1ccc(O)cc1)C(=O)N[C@@H](CCCNC(=N)N)C(=O)N[C@@H](CCCCN)C(=O)O)[C@@H](C)O
In words: purified protein, by the assay type. As to conditions: other: 0.01 µM protein, 25 mM citrate pH 6.0, 15 min at 25°C, malachite green.

Setting [9] is: pH 8, SPR Biacore-2000, 25°C, 10 mM HEPES pH 8.0, 150 mM NaCl, 10 mM DTT, 3 mM EDTA, peptides 50–700 µM, first binding site.
Setting [10] is: pH 8, SPR, 25°C, pH 8.0, second binding site.

T3 sequence (P16621 1448-2029 C1961S): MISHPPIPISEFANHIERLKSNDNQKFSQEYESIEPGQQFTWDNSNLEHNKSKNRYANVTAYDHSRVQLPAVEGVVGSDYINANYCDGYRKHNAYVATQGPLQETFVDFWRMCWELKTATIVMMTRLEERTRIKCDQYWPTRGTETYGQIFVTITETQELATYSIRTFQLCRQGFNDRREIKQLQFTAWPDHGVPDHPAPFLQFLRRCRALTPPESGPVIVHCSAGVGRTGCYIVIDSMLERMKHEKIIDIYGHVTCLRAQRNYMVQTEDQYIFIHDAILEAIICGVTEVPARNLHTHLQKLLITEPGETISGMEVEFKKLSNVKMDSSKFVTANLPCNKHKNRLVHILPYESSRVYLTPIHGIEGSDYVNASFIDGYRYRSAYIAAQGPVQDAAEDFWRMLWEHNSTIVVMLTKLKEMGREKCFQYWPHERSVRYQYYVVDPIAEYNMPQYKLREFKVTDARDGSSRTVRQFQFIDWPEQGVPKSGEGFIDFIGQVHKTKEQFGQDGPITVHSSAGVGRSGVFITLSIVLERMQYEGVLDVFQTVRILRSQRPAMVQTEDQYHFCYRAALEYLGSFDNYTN

`CC[C@H](C)[C@H](NC(=O)[C@H](CC(=O)O)NC(=O)[C@H](CCCNC(=N)N)NC(=O)[C@@H](N)[C@@H](C)O)C(=O)N[C@@H](Cc1ccc(OP(=O)(O)O)cc1)C(=O)N[C@@H](CCC(=O)O)C(=O)N[C@H](C(=O)N[C@@H](CC(=O)O)C(=O)N[C@@H](Cc1ccc(O)cc1)C(=O)N[C@@H](Cc1ccc(O)cc1)C(=O)N[C@@H](CCCNC(=N)N)C(=O)N[C@@H](CCCCN)C(=O)O)[C@@H](C)O` [Insulin Receptor peptide]: the affinity in series [1] (SPR, 25°C, pH 8.0, first binding site), expressed as Kd, was 62.2 ± 0.48 µM. Moreover, the kon in series [1] (setting [9]) was determined as 110 ± 2.32 M⁻¹ s⁻¹; in series [1] (setting [10]), 2860 ± 90000 M⁻¹ s⁻¹; in series [3] (setting [9]), 137 ± 2.84 M⁻¹ s⁻¹; in series [3] (setting [10]) it was 12.3 ± 0.02 M⁻¹ s⁻¹; in series [6] (setting [9]), 72.6 ± 1.2 M⁻¹ s⁻¹; in series [6] (setting [10]), 74.5 ± 1.6 M⁻¹ s⁻¹. For the same molecule, the Michaelis-Menten constant (Km) in series [2] came out at 59.5 ± 5.6 µM; in series [4], 110 ± 7.82 µM; in series [5], 45.3 ± 4.1 µM.

B1: PTP99A D1 D2 (Drosophila melanogaster) (protein)
chain: DEIRAAVPVNEFAKHVASLHADGDIGFSREYEAIQNECISDDLPCEHSQHPENKRKNRYLNITAYDHSRVHLHPTPGQKKNLDYINANFIDGYQKGHAFIGTQGPLPDTFDCFWRMIWEQRVAIIVMITNLVERGRRKCDMYWPKDGVETYGVIQVKLIEEEVMSTYTVRTLQIKHLKLKKKKQCNTEKLVYQYHYTNWPDHGTPDHPLPVLNFVKKSSAANPAEAGPIVVHCSAGVGRTGTYIVLDAMLKQIQQKNIVNVFGFLRHIRAQRNFLVQTEEQYIFLHDALVEAIASGETNLMAEQVEELKNCTPYLEQQYKNIIQFQPKDIHIASAMKQVNSIKNRGAIFPIEGSRVHLTPKPGEDGSDYINASWLHGFRRLRDFIVTQHPMAHTIKDFWQMVWDHNAQTVVLLSSLDDINFAQFWPDEATPIESDHYRVKFLNKTNKSDYVSRDFVIQSIQDDYELTVKMLHCPSWPEMSNPNSIYDFIVDVHERCNDYRNGPIVIVDRYGGAQACTFCAISSLAIEMEYCSTANVYQYAKLYHNKRPGVWTSSEDIRVIYNILSFLPGNLNLLKRTALRTEFEDVTTATPDLYSKICSNG
On to B1, for which, in series [7], the Km was found to be 112.42 ± 10.14 µM, the maximum rate (Vmax) was found to be 17.1 µmol/min/mg, the catalytic constant (kcat) was found to be 21.1 ± 0.82 s⁻¹ and the kcat/Km came out at 188000 ± 12900 M⁻¹ s⁻¹. Further, in series [8], the Km is on record as 35.75 ± 2.08 µM, the maximum rate (Vmax) was determined as 46 µmol/min/mg, the kcat was determined as 56.9 ± 1.03 s⁻¹ and the catalytic efficiency (kcat/Km) was 1.638e+06 ± 7400 M⁻¹ s⁻¹.

B2: PTP99A D1 (Drosophila melanogaster) (protein)
chain: DEIRAAVPVNEFAKHVASLHADGDIGFSREYEAIQNECISDDLPCEHSQHPENKRKNRYLNITAYDHSRVHLHPTPGQKKNLDYINANFIDGYQKGHAFIGTQGPLPDTFDCFWRMIWEQRVAIIVMITNLVERGRRKCDMYWPKDGVETYGVIQVKLIEEEVMSTYTVRTLQIKHLKLKKKKQCNTEKLVYQYHYTNWPDHGTPDHPLPVLNFVKKSSAANPAEAGPIVVHCSAGVGRTGTYIVLDAMLKQIQQKNIVNVFGFLRHIRAQRNFLVQTEEQYIFLHDALVEAIASGETNLMAEQVEE
As for B2, in series [7], the Michaelis constant (Km) came to 309.04 ± 33.32 µM, the Vmax was found to be 1.26 µmol/min/mg, the turnover number (kcat) came to 0.84 ± 0.04 s⁻¹ and the kcat/Km came out at 2718 ± 15 M⁻¹ s⁻¹. Also, in series [8], the Michaelis constant (Km) is recorded as 1017 ± 161.84 µM, the Vmax was 2.37 µmol/min/mg, the kcat came to 1.58 ± 0.11 s⁻¹ and the kcat/Km came to 1550 ± 22 M⁻¹ s⁻¹.
